Where a chain is given by its changes, count along the chain named. Names and notes keep the numbering of the source.
B1: M8 (First round) (VHH)
VHH: QVQLVESGGGLAQAGGSLRLSCAVSGMPEFARAMGWFRQAPGKERELLAAIEGIGATTYYADSVKGRFTISRDDAANTVLLQMNSLKPDDTAVYYCAAAFSVTIPTRARHWVYWGPGTLVTVSS
notes: tail DDDDK-SGGGGS-HHHHHH
B2: M31 (First round) (VHH)
VHH: B1 VHH with R109E, Y113D
notes: tail DDDDK-SGGGGS-HHHHHH
B3: M29 (First round) (VHH)
VHH: B1 VHH with T57K, Y113D
notes: tail DDDDK-SGGGGS-HHHHHH
B4: M25 (First round) (VHH)
VHH: B1 VHH with V112D, Y113D
notes: tail DDDDK-SGGGGS-HHHHHH
B5: WT (with tag), unmodified GH single-domain antibody molecule (VHH)
VHH: B1 VHH with Y113D
B6: M20 (First round) (VHH)
VHH: B1 VHH with L48V, Y113D
B7: M45 (First round) (VHH)
VHH: B1 VHH with Y113D
B8: M74 (Second round) (VHH)
VHH: B1 VHH with A56D, R109E, Y113D
notes: Entry already carries A57D; G134R; R100eE); tail DDDDK-SGGRGS-HHHHHH
B9: M68 (Second round) (VHH)
VHH: B1 VHH with A14P, R19T, Y113D
notes: Entry already carries A15P; R19T); tail DDDDK-SGGGGS-HHHHHH
B10: M78 (Second round) (VHH)
VHH: B1 VHH with A56D
notes: Entry already carries A57D; G134R; D102Y); tail DDDDK-SGGRGS-HHHHHH
B11: M67 (Second round) (VHH)
VHH: B1 VHH with A14P, Y113D, P116Q
notes: Entry already carries A15P; P105Q); tail DDDDK-SGGGGS-HHHHHH
B12: M11 (First round) (VHH)
VHH: B1 VHH with Y113D, P116Q
B13: M28 (First round) (VHH)
VHH: B1 VHH with R19T, Y113D
B14: M22 (First round) (VHH)
VHH: B1 VHH with L11K, Y113D
B15: M33 (First round) (VHH)
VHH: B1 VHH with A56D, Y113D
B16: M24 (First round) (VHH)
VHH: B1 VHH with W111F, Y113D
B17: M34 (First round) (VHH)
VHH: B1 VHH with N77S, Y113D
B18: M69 (Second round) (VHH)
VHH: B1 VHH with P28T, Y113D
notes: Entry already carries P29T; tail DDDDK-SGGRGS-HHHHHH
B19: M64 (Second round) (VHH)
VHH: B1 VHH with A14P, Y113D
notes: Entry already carries A15P; tail DDDDK-SGGRGS-HHHHHH
B20: M53 (Second round) (VHH)
VHH: B1 VHH with A56D, R109E, Y113D
notes: Entry already carries A57D; R100eE); tail DDDDK-SGGGGS-HHHHHH
B21: M79 (Second round) (VHH)
VHH: B1 VHH with L48V, A56D, R109E, Y113D
notes: Entry already carries A57D; R110E; A55D; R100eE); tail DDDDK-SGGGGS-HHHHHH
B22: M88 (Second round) (VHH)
VHH: B1 VHH with L48V, A56D, R109E, Y113D
notes: Entry already carries A57D; G134R; R110E; A55D; R100eE); tail DDDDK-SGGRGS-HHHHHH
B23: M72 (Second round) (VHH)
VHH: B1 VHH with A56D, W111F
notes: Entry already carries A57D; D114Y; W100gF; D102Y); tail DDDDK-SGGGGS-HHHHHH
B24: M82 (Second round) (VHH)
VHH: B1 VHH with A56D, R109E
notes: Entry already carries A57D; G134R; R110E; R100eE; D102Y); tail DDDDK-SGGRGS-HHHHHH
B25: M89 (Second round) (VHH)
VHH: B1 VHH with A56D, R109E, W111F, Y113D
notes: Entry already carries A57D; G134R; R110E; R100eE; W100gF); tail DDDDK-SGGRGS-HHHHHH
B26: M83 (Second round) (VHH)
VHH: B1 VHH with A56D, R109E, W111F, Y113D, P116Q
notes: Entry already carries A57D; P117Q; R110E; R100eE; W100gF; P105Q); tail DDDDK-SGGGGS-HHHHHH
B27: M70 (Second round) (VHH)
VHH: B1 VHH with A14P, R109E, Y113D
notes: Entry already carries A15P; R100eE); tail DDDDK-SGGGGS-HHHHHH
B28: M71 (Second round) (VHH)
VHH: B1 VHH with A56D, R109E, Y113D, P116Q
notes: Entry already carries A57D; P117Q; R100eE; P105Q); tail DDDDK-SGGGGS-HHHHHH
B29: M81 (Second round) (VHH)
VHH: B1 VHH with A56D, R109E, Y113D, P116Q
notes: Entry already carries A57D; G134R; P117Q; R100eE; P105Q); tail DDDDK-SGGRGS-HHHHHH
B30: M77 (Second round) (VHH)
VHH: B1 VHH with A56D, R109E, W111F, Y113D
notes: Entry already carries A57D; R110E; R100eE; W100gF); tail DDDDK-SGGGGS-HHHHHH
B31: M66 (Second round) (VHH)
VHH: B1 VHH with A14P, P28T, Y113D
notes: Entry already carries P29T; P28T); tail DDDDK-SGGGGS-HHHHHH
B32: M75 (Second round) (VHH)
VHH: B1 VHH with A56D, R109E
notes: Entry already carries A57D; R110E; R100eE; D102Y); tail DDDDK-SGGGGS-HHHHHH
B33: M59 (Second round) (VHH)
VHH: B1 VHH with P28T, A56D, Y113D
notes: Entry already carries A57D; A55D); tail DDDDK-SGGGGS-HHHHHH
B34: M76 (Second round) (VHH)
VHH: B1 VHH with A56D, W111F, Y113D
notes: Entry already carries A57D; G134R; W100gF); tail DDDDK-SGGRGS-HHHHHH

These binders were tested against T1, rhGH protein (UniProt: P01241) (human, UniProt P01241 27-217) (assay: ELISA on coated rhGH, anti-6*His HRP; sample after 0.3 M NaOH 24h).
T1 construct: Coated at 5 ug/ml in the ELISA; also called human growth hormone
T1 sequence (P01241 27-217 limits assumed, one chain of several): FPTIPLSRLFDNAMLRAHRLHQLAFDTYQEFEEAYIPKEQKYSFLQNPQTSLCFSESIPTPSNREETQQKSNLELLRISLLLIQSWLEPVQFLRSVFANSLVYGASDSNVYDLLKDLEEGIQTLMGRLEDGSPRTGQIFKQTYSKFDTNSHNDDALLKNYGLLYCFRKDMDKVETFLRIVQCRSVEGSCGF

Row | binding result | Binder
1 | binds | B1
2 | binds | B2
3 | binds | B3
4 | binds | B4

Each binder was assayed against GH (GH stock solution) (UniProt P01241) (assay: affinity chromatography, VHH-conjugated medium loaded with GH stock solution; medium in 0.1M NaOH 32h).
Sequence of GH (GH stock solution) (P01241 27-217 limits assumed): as the sequence (P01241 27-217 limits assumed, one chain of several) above

Row | dynamic binding capacity at 10% breakthrough | Binder
5 | 14.7 | B5
6 | 16.9 | B6
7 | 16.2 | B7
8 | 15.4 | B8
9 | 15.4 | B9
10 | 15.4 | B10
11 | 14.9 | B11

What follows are binders tested against GH (GH stock solution) (UniProt P01241) (assay: affinity chromatography, VHH-conjugated medium loaded with GH stock solution; medium in 0.1M NaOH 0h).

Row | dynamic binding capacity at 10% breakthrough | Binder
12 | 22.3 | B5
13 | 19.6 | B6
14 | 18.2 | B7
15 | 15 | B8
16 | 15.9 | B9
17 | 16.3 | B10
18 | 15.9 | B11

Each binder was assayed against rhGH protein (UniProt: P01241) (human) (UniProt P01241) (assay: ELISA on coated rhGH, anti-6*His HRP; sample after 0.5M NaOH 24h, against WT).
Design: unit not given beside the values

Sequence of rhGH protein (UniProt: P01241) (human) (UniProt P01241) (P01241 27-217 limits assumed, one chain of several): as above

Row | EC50 against that of the WT after 0.5M alkali (% higher than WT) | Binder
19 | 50 | B12
20 | 50 | B13
21 | 50 | B14
22 | 50 | B6
23 | 50 | B7
24 | 50 | B15
25 | 50 | B16
26 | 50 | B17
27 | 50 | B18
28 | 50 | B19

What follows are binders tested against GH (GH stock solution) (UniProt P01241) (assay: affinity chromatography, VHH-conjugated medium loaded with GH stock solution; medium in 0.1M NaOH 24h).

Row | dynamic binding capacity at 10% breakthrough | Binder
29 | 16.2 | B5
30 | 18 | B6
31 | 17.4 | B7
32 | 15.8 | B8
33 | 16.2 | B9
34 | 16.3 | B10
35 | 16.2 | B11

Each binder was assayed against GH (GH stock solution) (UniProt P01241) (assay: affinity chromatography, VHH-conjugated medium loaded with GH stock solution; medium in 0.5M NaOH 24h).

Row | dynamic binding capacity at 10% breakthrough | Binder
36 | 3.39 | B5
37 | 10.2 | B6
38 | 4.29 | B7
39 | 8.24 | B8
40 | 5.41 | B9
41 | 9.06 | B10
42 | 4.23 | B11

These binders were tested against GH (GH stock solution) (UniProt P01241) (assay: affinity chromatography, VHH-conjugated medium loaded with GH stock solution; medium in 0.5M NaOH 6h).

Row | dynamic binding capacity at 10% breakthrough | Binder
43 | 5.78 | B5
44 | 14.3 | B6
45 | 7.6 | B7
46 | 13.2 | B8
47 | 12.2 | B9
48 | 13.5 | B10
49 | 10.2 | B11

These binders were tested against GH (GH stock solution) (UniProt P01241) (assay: loss of dynamic binding capacity of the conjugated medium for GH after 0.1M NaOH 32h).

Row | DBC decay rate | Binder
50 | 35% | B5
51 | < 6% | B6
52 | < 6% | B8
53 | < 6% | B10

Each binder was assayed against GH (GH stock solution) (UniProt P01241) (assay: affinity chromatography, VHH-conjugated medium loaded with GH stock solution; medium in 0.5M NaOH 0h).

Row | dynamic binding capacity at 10% breakthrough | Binder
54 | 22.3 | B5
55 | 19.6 | B6
56 | 18.2 | B7
57 | 14.7 | B8
58 | 15.3 | B9
59 | 16.3 | B10
60 | 15.9 | B11

These binders were tested against T1, rhGH protein (UniProt: P01241) (assay: ELISA on coated rhGH; sample after 0.5M NaOH 24h).

Row | binding result | Binder
61 | binds | B20
62 | binds | B8
63 | binds | B18
64 | binds | B9
65 | binds | B10
66 | binds | B21
67 | binds | B22
68 | binds | B23
69 | binds | B24
70 | binds | B25
71 | binds | B26
72 | binds | B27
73 | binds | B28
74 | binds | B29
75 | binds | B19
76 | binds | B30
77 | binds | B31
78 | binds | B11
79 | binds | B32
80 | binds | B33
81 | binds | B34

Each binder was assayed against GH (GH stock solution) (UniProt P01241) (assay: loss of dynamic binding capacity of the conjugated medium for GH after 0.5M NaOH 24h).

Row | residual DBC (a decrease of DBC) | Binder
82 | 85% | B5
83 | < 49% | B6
84 | < 49% | B8
85 | < 49% | B10

— EP4803541A1 (Changchun Genescience Pharmaceutical Co., Ltd., dated 2026)
